According to patent US20190041402A1 (GOVERNING COUNCIL OF THE UNIVERSITY OF TORONTO, published 2019):

Experiments:
mouse αKlotho = molecular target: T1, mouse αKlotho (mouse, UniProt O35082 35-982); assay: SPR (ProteOn XPR36), Fab captured by anti-IgG(H+L), mouse αKlotho injected in serial dilutions, Langmuir fit [continued) C.]
T1 construct: also called Mu aKL
T1 sequence (looked up): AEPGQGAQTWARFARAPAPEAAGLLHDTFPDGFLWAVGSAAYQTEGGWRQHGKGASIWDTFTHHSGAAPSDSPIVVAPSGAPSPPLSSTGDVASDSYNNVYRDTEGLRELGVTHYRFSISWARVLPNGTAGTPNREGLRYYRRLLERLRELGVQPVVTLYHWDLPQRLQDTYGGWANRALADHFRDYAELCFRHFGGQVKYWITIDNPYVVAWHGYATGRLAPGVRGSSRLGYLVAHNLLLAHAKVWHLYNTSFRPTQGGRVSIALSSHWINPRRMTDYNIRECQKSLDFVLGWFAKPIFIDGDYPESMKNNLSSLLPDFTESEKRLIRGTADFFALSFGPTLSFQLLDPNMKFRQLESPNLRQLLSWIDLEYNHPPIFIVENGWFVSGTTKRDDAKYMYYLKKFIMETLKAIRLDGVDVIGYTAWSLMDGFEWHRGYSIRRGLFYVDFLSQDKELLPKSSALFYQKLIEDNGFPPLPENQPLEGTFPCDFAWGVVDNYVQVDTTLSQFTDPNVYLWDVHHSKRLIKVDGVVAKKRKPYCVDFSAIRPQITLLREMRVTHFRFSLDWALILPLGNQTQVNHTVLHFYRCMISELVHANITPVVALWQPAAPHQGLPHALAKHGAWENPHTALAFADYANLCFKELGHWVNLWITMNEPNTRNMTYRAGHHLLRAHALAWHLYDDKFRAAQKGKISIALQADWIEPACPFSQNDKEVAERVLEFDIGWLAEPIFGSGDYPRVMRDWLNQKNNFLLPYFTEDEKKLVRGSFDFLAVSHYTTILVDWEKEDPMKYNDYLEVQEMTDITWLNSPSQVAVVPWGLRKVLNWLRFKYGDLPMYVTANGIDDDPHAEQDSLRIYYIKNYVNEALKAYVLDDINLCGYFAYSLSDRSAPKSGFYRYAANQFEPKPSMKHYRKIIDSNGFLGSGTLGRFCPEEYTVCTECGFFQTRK
Protocol: Estimated affinities against human and mouse antigen for select αKlotho Fabs were obtained by surface plasmon resonance on a ProteOn XPR36 (FIG. 17). Fabs were captured using an anti-IgG(H+L) antibody and serial dilutions of αKlotho were injected. Binding curves were fitted to the Langmuir model. (A) Determined Kon, Koff and KD values. (B) and (C) Binding curves for human and mouse antigen respectively.

rat αKlotho (endogenous) = molecular target: T2, rat αKlotho (endogenous) (rat, UniProt Q9Z2Y9 35-983); assay: immunoprecipitation-immunoblot, serum and urine; native soluble αKlotho in rat serum; immunoprecipitation-immunoblot
T2 sequence (looked up): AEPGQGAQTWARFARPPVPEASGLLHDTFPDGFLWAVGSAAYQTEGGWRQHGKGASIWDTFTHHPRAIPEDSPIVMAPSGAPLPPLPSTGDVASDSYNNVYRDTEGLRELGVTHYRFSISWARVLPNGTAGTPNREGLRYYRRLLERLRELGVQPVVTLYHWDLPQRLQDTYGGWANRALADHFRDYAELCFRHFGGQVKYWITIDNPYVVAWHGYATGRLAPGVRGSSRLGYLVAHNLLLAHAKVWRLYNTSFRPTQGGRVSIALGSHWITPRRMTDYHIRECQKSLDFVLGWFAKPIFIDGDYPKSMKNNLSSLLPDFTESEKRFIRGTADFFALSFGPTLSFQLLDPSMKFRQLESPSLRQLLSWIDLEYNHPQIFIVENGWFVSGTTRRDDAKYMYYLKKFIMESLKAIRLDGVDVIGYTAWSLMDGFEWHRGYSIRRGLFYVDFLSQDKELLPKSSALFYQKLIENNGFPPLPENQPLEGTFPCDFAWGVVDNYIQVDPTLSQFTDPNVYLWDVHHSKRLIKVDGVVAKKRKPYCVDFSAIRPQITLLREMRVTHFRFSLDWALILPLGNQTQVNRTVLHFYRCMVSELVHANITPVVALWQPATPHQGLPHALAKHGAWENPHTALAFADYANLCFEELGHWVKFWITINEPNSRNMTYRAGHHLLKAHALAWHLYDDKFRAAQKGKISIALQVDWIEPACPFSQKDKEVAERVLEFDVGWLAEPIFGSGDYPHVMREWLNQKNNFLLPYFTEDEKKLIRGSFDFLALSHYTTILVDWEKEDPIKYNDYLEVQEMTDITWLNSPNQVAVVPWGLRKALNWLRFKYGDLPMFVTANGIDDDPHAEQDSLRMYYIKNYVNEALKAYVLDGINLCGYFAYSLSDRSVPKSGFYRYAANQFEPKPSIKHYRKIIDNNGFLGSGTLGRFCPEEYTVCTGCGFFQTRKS
Protocol: The ELISA was performed as instructed by the manufacturer (Immuno-Biological Laboratory, Japan). For the IP-IB assay, typically 50 μl of serum or urine were diluted with KRH buffer [25 mM Hepes-NaOH (pH 7.4), 120 mM NaCl, 5 mM KCl, 1.2 mM MgSO4, 1.3 mM CaCl2, 1.3 mM KH2PO4] to a final volume of 0.5 ml incubated with 2 μg of sb106-Fab overnight at 4° C. in low binding, siliconized tubes. Sepharose beads (50 μL) conjugated with anti-FLAG antibody (50% v/v) prewashed 3× with KRH buffer were added, incubated (4° C.×2 h), and washed (KRH-500 μl per tube ×3; 22° C.). The immune complex was eluted with 2×SDS sample loading buffer (50 μl; 100° C.×3 min; 4° C.×3 min; spun), and fractionated by SDS-PAGE, transferred to nitrocellulose membranes and blotted with anti-KL1 antibody (KM2076, 1:4000 or 3.1 mg/mL, 1:10000 dilution) and diluent (Dako#S3022, Carpinteria, Calif., USA) overnight (4° C., rocker). The membrane was washed (×3, Tris-buffered saline with 0.1% Tween; TBS-T), exposed to anti-rat IgG2A (LSBio cat#LS-059051, 1:20000 in 5% milk/2% goat serum/TBS-T×1 h) and washed (×3 TBS-T). For chemiluminescence, the membrane was covered with SuperSignal West Femto Maximum Sensitivity substrate (Thermo Scientific, Rockford, Ill., USA) and exposed for 30-90 s. The 130-kD bands were scanned, and density was compared with internal control samples of know amount of Klotho using Adobe Photoshop CS4.

Kd (mouse αKlotho): 0.784 nM
koff (mouse αKlotho): 0.000159 s⁻¹
kon (mouse αKlotho): 202000 M⁻¹ s⁻¹
binding result (rat αKlotho (endogenous)): binds
B1: sb106 Fab (Fab, V domains shown)
VH: EVQLVESGGGLVQPGGSLRLSCAASGFNISYYSIHWVRQAPGKGLEWVAYISPSYGYTSYADSVKGRFTISADTSKNTAYLQMNSLRAEDTAVYYCARYYVYASHGWAGYGMDYWGQGTLVTVSS
VL: DIQMTQSPSSLSASVGDRVTITCRASQSVSSAVAWYQQKPGKAPKLLIYSASSLYSGVPSRFSGSRSGTDFTLTISSLQPEDFATYYCQQAGYSPITFGQGTKVEIKR
notes: also called Fsb106; clone 48
